Results as given in patent US20250289897A1, “LEPTIN RECEPTOR AGONISTIC ANTIBODY AS MONO OR COMBO THERAPIES TO TREAT OBESITY” (ELI LILLY AND COMPANY, priority 2024, published 2025).
Where “and” joins values, the source holds several entries; their conditions need not be identical. Equal values may be shown once.

What was measured:
FcRn = molecular target: T1, FcRn (Homo sapiens, UniProt P55899); experiment: Relative FcRn binding by FcRn-HPLC; details: FcRn affinity column; for Retention Time: pH gradient 5.5 to 8.8 over 90 minutes, main peak; for Peak Width: peak width at 50% peak height
T1 construct: purchased Roche 09430857001
Method: IgG binding to neonatal Fc receptor (FcRn) is a key mechanism for antibody recycling and a determinant of antibody pharmacokinetics (PK). […] Antibody-A is an IgG1 mAb with L234A, L235A, D265S mutations to reduce FcγR and Clq binding and M252Y, S254T, and T256E mutations to modulate the antibody's clearance profile. The impact of these combined mutation sets was assessed by FcRn-HPLC. Stock antibody solutions were diluted to 1 mg/mL into 20 mM MES, 140 mM NaCl, pH5.5. An Agilent 1290 HPLC equipped with an FcRn Affinity Column Gen2 (Roche, Cat #09430857001) was pre-equilibrated with 20 mM MES, 140 mM NaCl, pH5.5 with a flow rate of 0.2mL/min. 20 μμL antibody injections were made followed by 10 minute column wash with 20 mM MES, 140 mM NaCl, pH5.5. Antibodies were then eluted by pH gradient elution into 20 mM Tris, 140 mM NaCl, pH8.8 over 90 minutes. Chromatograms were blank-subtracted to remove baseline drift.

leptin-LEPR interaction = leptin-LEPR interaction (Homo sapiens, UniProt P48357); experiment: ELISA based competition binding assay of antibodies and leptin protein to LEPR
leptin-LEPR interaction, sequence (P48357 with tags, fused parts or gaps): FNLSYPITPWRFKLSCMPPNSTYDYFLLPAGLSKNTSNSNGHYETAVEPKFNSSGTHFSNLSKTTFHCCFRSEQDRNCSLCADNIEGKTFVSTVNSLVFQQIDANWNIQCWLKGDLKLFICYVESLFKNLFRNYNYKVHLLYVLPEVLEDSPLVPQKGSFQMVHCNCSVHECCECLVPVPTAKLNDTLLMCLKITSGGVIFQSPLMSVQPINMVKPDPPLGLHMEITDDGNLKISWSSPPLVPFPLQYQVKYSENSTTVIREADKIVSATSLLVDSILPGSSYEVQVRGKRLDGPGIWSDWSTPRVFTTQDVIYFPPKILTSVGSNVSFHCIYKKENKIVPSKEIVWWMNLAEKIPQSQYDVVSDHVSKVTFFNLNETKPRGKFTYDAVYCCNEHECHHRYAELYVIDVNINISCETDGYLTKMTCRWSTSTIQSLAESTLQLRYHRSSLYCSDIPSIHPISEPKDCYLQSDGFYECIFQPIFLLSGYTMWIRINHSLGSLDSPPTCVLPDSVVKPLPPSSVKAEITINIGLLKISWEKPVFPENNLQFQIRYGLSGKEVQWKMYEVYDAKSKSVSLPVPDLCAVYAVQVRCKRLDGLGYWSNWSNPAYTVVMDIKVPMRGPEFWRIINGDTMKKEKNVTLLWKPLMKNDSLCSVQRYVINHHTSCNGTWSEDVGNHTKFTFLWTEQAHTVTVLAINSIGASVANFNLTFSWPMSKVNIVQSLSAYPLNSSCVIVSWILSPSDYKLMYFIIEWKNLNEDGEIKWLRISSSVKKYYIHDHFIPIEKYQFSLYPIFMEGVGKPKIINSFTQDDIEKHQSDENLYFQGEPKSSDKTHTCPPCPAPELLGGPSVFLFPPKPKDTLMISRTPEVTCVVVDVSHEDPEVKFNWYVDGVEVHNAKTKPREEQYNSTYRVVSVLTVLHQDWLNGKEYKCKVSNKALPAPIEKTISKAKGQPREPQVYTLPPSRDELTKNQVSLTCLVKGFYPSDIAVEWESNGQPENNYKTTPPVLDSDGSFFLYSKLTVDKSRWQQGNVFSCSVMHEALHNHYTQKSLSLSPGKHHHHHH
Method: To test whether the binding of anti-LEPR antibodies to LEPR will compete with leptin-LEPR interaction, an ELISA based competition binding assay was conducted.
Recombinant LEPR extracellular domain fused to hlgG1-Fc (LEPR-Fc) (SEQ ID NO: 30) was diluted in Phosphate Buffered Solution (PBS, Gibco, #20012-027) and applied onto a 96-well Costar assay plate (Corning, #3690) at 5 μg/mL and 50 μL/well. The solution was incubated at 4° C. for 20 hours to allow sufficient protein coating. The plate was then rinsed 3 times with 160 μL/well of 1x wash buffer (R&D, #WA126, 25x), blocked for 1 hour at room temperature with Casein blocking solution (ThermoFisher, #37582), and rinsed by wash buffer 2 times. Serial concentrations of anti-LEPR antibodies (Antibodies A, B, and C) were then diluted in 60 μL of Casein blocking solution and added to each well. Serial concentrations of LEPR-Fc (SEQ ID NO:30) were used as positive control to compete with plate-bound receptor for leptin. Casein blocking solution was used as negative control. The plate was incubated with either anti-LEPR antibodies, positive or negative controls for 90 minutes at room temperature. Next, recombinant human leptin protein (R&D, #398-LP-05M) diluted in 20 μL Casein blocking buffer was added to each plate to a final concentration of 2 nM. The plate was then mixed for 30 seconds with gentle shaking followed by another 90 minutes of incubation at room temperature. The plate was rinsed 3 times with wash buffer. […] Data was obtained by a microplate reader with light absorbance set to 450 nm (OD450). Average OD450 readings in casein coated wells (without LEPR-Fc (SEQ ID NO: 30) coating) were subtracted from all raw OD450 readings to generate the normalized OD450 readings. The average normalized OD450 readings from negative controls (2 nM leptin incubated wells without any competing articles) was set as 100 percent (100%) binding. All normalized OD450 readings were compared to this OD450 reading and presented as percentages of binding. The top and bottom of dose response curve and IC50 was calculated using GraphPad Prism software.

T1 sequence (P55899 24-297 limits assumed): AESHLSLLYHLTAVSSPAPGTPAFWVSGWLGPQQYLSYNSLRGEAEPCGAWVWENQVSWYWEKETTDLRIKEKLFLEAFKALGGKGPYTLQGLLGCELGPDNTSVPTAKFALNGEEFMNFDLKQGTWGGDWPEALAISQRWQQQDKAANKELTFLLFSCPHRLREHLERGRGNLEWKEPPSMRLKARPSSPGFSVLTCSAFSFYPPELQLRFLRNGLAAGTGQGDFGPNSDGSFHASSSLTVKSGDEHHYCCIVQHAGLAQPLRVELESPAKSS
T1 sequence (P61769 21-119 partner): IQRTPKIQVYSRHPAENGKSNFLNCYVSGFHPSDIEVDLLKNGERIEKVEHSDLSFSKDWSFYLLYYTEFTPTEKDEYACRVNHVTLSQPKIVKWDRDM

Row | Substance | Retention Time (FcRn) [min] | Peak Width (FcRn) | Hill Slope (leptin-LEPR interaction; competition dose response curve) | Bottom (%) (leptin-LEPR interaction; percent leptin binding to plate-bound LEPR-Fc, 2 nM leptin, bottom of dose response curve) | Top (%) (leptin-LEPR interaction; percent leptin binding to plate-bound LEPR-Fc, 2 nM leptin, top of dose response curve)
1 | Briakinumab | 88.9 | 10 min and 10.0 min | – | – | –
2 | Ustekinumab | 69.4 | 1.9 min | – | – | –
3 | hLEPR-TEV-hIgG1Fc: recombinant LEPR extracellular domain fused to hIgG1-Fc (SEQ ID NO: 30), positive control competing for leptin | – | – | −1.07 | 6.076 | 92.03
